This note sets out measurements from patent US20120207760A1.

Holding throughout (conditions): remark: other sources report otherwise
In test [1] the target is T1, recombinant homotrimeric HA, A/northern shoveler/California/HKWF115/07 (Influenza A virus A/northern shoveler/California/HKWF115/2007 (H6N1)). Briefly: trimeric HA microarray, transfection set 3.
Test [2] addresses T2, recombinant homotrimeric HA, A/Hong Kong/1073/99 H9N2 (Influenza A virus A/Hong Kong/1073/99 (H9N2)). Briefly: trimeric HA microarray, transfection set 3.
The target in test [3] is T3, recombinant homotrimeric HA, A/Japan/305/57 H2N2 (Influenza A virus A/Japan/305/57 (H2N2)). Briefly: trimeric HA microarray, transfection set 2.
In test [4] the target is T4, recombinant homotrimeric HA, A/California/4/09 H1N1 (Influenza A virus A/California/4/09 (H1N1)). Briefly: trimeric HA microarray, transfection set 2.
Test [5] has as its target T5, recombinant homotrimeric HA, A/swine/Ontario/01911-2/99 H4N6 (Influenza A virus A/swine/Ontario/01911-2/99 (H4N6)). Briefly: trimeric HA microarray, transfection set 2.
Test [6] concerns the target recombinant homotrimeric HA, A/Hong Kong/2108/03 H9N2 (Influenza A virus A/Hong Kong/2108/03 (H9N2)). The experiment in a line: trimeric HA microarray, transfection set 2.
For test [7], the target named is recombinant homotrimeric HA, A/chicken/Vietnam/NCVD-016/08 H5N1 (Influenza A virus A/chicken/Vietnam/NCVD-016/08 (H5N1)). Briefly: trimeric HA microarray, transfection set 2.
Test [8] addresses T6, recombinant homotrimeric HA, A/Vietnam/1203/04 H5N1 (Influenza A virus A/Vietnam/1203/04 (H5N1)). The experiment in a line: trimeric HA microarray, transfection set 2.
Test [9] addresses recombinant homotrimeric HA, A/common magpie/Hong Kong/5052/07 H5N1 (Influenza A virus A/common magpie/Hong Kong/5052/07 (H5N1)). The experiment in a line: trimeric HA microarray, transfection set 2.
Test [10] addresses T7, recombinant homotrimeric HA, A/Indonesia/5/05 H5N1 (Influenza A virus A/Indonesia/5/05 (H5N1)). Briefly: trimeric HA microarray, transfection set 2.
The target of test [11] is recombinant homotrimeric HA, A/Egypt/3300-NAMRU3/08 H5N1 (Influenza A virus A/Egypt/3300-NAMRU3/08 (H5N1)). Briefly: trimeric HA microarray, transfection set 2.
Test [12] deals with T8, recombinant homotrimeric HA, A/South Carolina/1/18 H1N1 (Influenza A virus A/South Carolina/1/18 (H1N1)). Briefly: trimeric HA microarray, transfection set 2.
For test [13], the target named is T9, recombinant homotrimeric HA, A/Solomon Islands/3/06 H1N1 (Influenza A virus A/Solomon Islands/3/06 (H1N1)). The experiment in a line: trimeric HA microarray, transfection set 2.
Test [14] has as its target T3, recombinant homotrimeric HA, …. Briefly: trimeric HA microarray, transfection set 5.
The target in test [15] is T4, recombinant homotrimeric HA, …. Briefly: trimeric HA microarray, transfection set 5.
The target of test [16] is T5, recombinant homotrimeric HA, …. Briefly: trimeric HA microarray, transfection set 5.
Test [17] addresses T6, recombinant homotrimeric HA, …. Briefly: trimeric HA microarray, transfection set 5.
Test [18] deals with T7, recombinant homotrimeric HA, …. Briefly: trimeric HA microarray, transfection set 5.
Test [19] deals with T8, recombinant homotrimeric HA, A/South …. The experiment in a line: trimeric HA microarray, transfection set 5.
The target of test [20] is T9, recombinant homotrimeric HA, A/Solomon …. Briefly: trimeric HA microarray, transfection set 5.
Test [21] deals with T1, recombinant homotrimeric HA, A/northern …. Briefly: trimeric HA microarray, transfection set 1.
Test [22] concerns the target T2, recombinant homotrimeric HA, A/Hong …. Briefly: trimeric HA microarray, transfection set 1.
Test [23] has as its target T10, recombinant homotrimeric HA, A/Netherlands/219/03 H7N7 (Influenza A virus A/Netherlands/219/03 (H7N7)). Briefly: trimeric HA microarray, transfection set 3.
The target in test [24] is T11, recombinant homotrimeric HA, A/duck/Yangzhou/02/05 H8N4 (Influenza A virus A/duck/Yangzhou/02/2005 (H8N4)). The experiment in a line: trimeric HA microarray, transfection set 3.
Test [25] addresses T12, recombinant homotrimeric HA, A/Wisconsin/67/05 H3N2 (Influenza A virus A/Wisconsin/67/05 (H3N2)). The experiment in a line: trimeric HA microarray, transfection set 3.
For test [26], the target named is recombinant homotrimeric HA, A/Anhui/1/05 H5N1 (Influenza A virus A/Anhui/1/05 (H5N1)). Briefly: trimeric HA microarray, transfection set 3.
The target of test [27] is T10, recombinant homotrimeric HA, …. Briefly: trimeric HA microarray, transfection set 1.
Test [28] deals with T11, recombinant homotrimeric HA, …. Briefly: trimeric HA microarray, transfection set 1.
The target in test [29] is T12, recombinant homotrimeric HA, …. Briefly: trimeric HA microarray, transfection set 1.

B1: TCN-523 (5248_A17) (antibody, V domains shown)
VH: QVQLVQSGAEVKKPGSSVKVSCKASGGSFSNYAFSWVRQAPGQGLEWMGGTIPLLGTTNYAQKFQGRVTISADQFTSTAYMELGSLRSEDTAVYYCTRRKMTTAFDSWGQGTLVTVSS
VL: QPVLTQPPSASASLGASVTLTCTLSSAYSNYKVDWYQQRPGKGPRFVMRVGTGGIVGSKGDGIPDRFSVLGSGLNRYLTIKNIQEEDESDYHCGADHGSGSNFVSPYVFGGGTKLTVL
Take B1: the Trimeric HA Binding RLU came to 29400 RLU in test [1]; 24200 RLU in [2]; 882 RLU in [3]; 18700 RLU in [4]; 82 RLU in test [5]; 18 RLU in test [6]. Further, the Trimeric HA Binding RLU in test [7] is 17600 RLU; in [8], 26200 RLU; in [9], 7210 RLU; in [10], 24500 RLU; in test [11] it was 30700 RLU; in test [12], 25500 RLU. Further, the Trimeric HA Binding RLU in [13] was determined as 3270 RLU; in test [14], 22000 RLU; in test [15], 34400 RLU; in test [16], 1700 RLU; in test [17] it was 27800 RLU; in test [18], 55000 RLU. In addition, the Trimeric HA Binding RLU is 52000 RLU in test [19], 37600 RLU in test [20], 9050 RLU in [21] and 21700 RLU in [22].

B2: TCN-504 (3251_K17) (antibody, V domains shown)
VH: QVQLQESGPGLVKPSETLSLTCAVSGVSISNIDFYWGWIRQPPGKGLEWIGNIYYTGITFYNPSLSSRVAISIDTSKNQFSLTLTSVTAADTAMYYCARHYGDSEAINDAFDIWGQGTMLTVSS
VL: EIVMTQSPATLSVSPGERATLSCRASQSVGNSLAWYQQRPGQAPRLLIYGASTRATGIPPRFSGSGSGTEFTLTISSLQTEDFAVYYCQQYINWRPLSFGGGTKVEIK
Turning to B2, the Trimeric HA Binding RLU is 19600 RLU in test [23]; 19600 RLU in test [24]; 21400 RLU in test [25]; 30000 RLU in test [26]; 22600 RLU in [3]; 15600 RLU in test [4]. Moreover, the Trimeric HA Binding RLU worked out at 32500 RLU in test [5]; 23 RLU in test [6]; 27300 RLU in [7]; 15000 RLU in test [8]; 16800 RLU in test [9]; 19700 RLU in [10]. For the same molecule, the Trimeric HA Binding RLU was 21400 RLU in test [11]; 24700 RLU in test [12]; 31400 RLU in test [13]; 23300 RLU in test [14]; 17600 RLU in test [15]; 54800 RLU in test [16]. Further, the Trimeric HA Binding RLU in [17] stood at 21500 RLU; in test [18], 18500 RLU; in test [19], 32000 RLU; in test [20], 30100 RLU; in [27], 23800 RLU; in test [28] it was 28900 RLU. In addition, the Trimeric HA Binding RLU in test [29] was 14300 RLU.
